Data: the RNAGym collection of RNA variant scans (doi:10.1073/pnas.2313332121)

B1: TPR t1 (parent)
chain: GACCAAUCUGCCCUCAGAGCUCGAGAACAUCUUCGGAUGCAGAGGAGGCAGGCUUCGGUGGCGCGAUAGCGCCAACGUCCUCAACCUCCAAUGCAUCCCACCACAUGAUGAUGCCUGAAGAGCCUUGGUUUUUUG

Variants of: B1
Assay: polymerase ribozyme fitness, log enrichment relative to wild type (log ratio); higher = more active; in vitro selection for triplet polymerase activity
Procedure, shortened: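 Genotype fitness is the logarithm of its enrichment divided by wild-type enrichment, using inverse-variance-weighted averages of replicates. That logarithm is base 2. Enrichment was measured by Illumina sequencing of input and output libraries from one triplicate in vitro selection round, with frozen incubation at −7 °C, on PCR-built, transcribed mutant libraries of each subunit of a heterodimeric triplet polymerase ribozyme, retaining genotypes with ≥10 input reads and ≥1 read per output.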

Variant | polymerase ribozyme fitness (log ratio)
GACCAAUCUGCCCUCAGAGCUCGAGAACAUCUUCGGAUGCAGAGGAGGCAGGCUUCGGUGGCGCGAUAGCGGCAACGUCCUCAACCUGCAAUGCAUCCCACCACAUGAUGAUGCUUGAAGAGCCUUGGUUUUUUG [C72G C88G C115U] | -3.24
GACCAAUCUGCCCUCAGAGCUCGAGAACAUCUUCGGAUGCAGAGGAGGCAGGCUUCGGUGGCGCGAUAGCGGCAACGUCCUCAACAACCAAUGCAUCCCACCACAUGAUGAUGCCUGAAGAGCCUUGGUUUUUUG [C72G C86A U87A] | -4.6
GACCAAUCUGCCCUCAGAGCUCGAGAACAUCUUCGGAUGCAGAGGAGGCAGGCUUCGGUGGCGCGAUAGCGUCAACGUCCUCAACAUCCAAUGCAUCCCACCACAUGAUGAUGCCUGAAGAGCCUUGGUUUUUUG [C72U C86A] | -0.584
GACCAAUCUGCCCUCAGAGCUCGAGAACAUCUUCGGAUGCAGAGGAGGCAGGCUUCGGUGGCGCGAUAGCGUCAACGUCCUCAACCUCCAAUGCAUCCCACCACUUGAUGAUGCCUGAAGAGCCUUGGUUUUUUG [C72U A105U] | -2.43
GACCAAUCUGCCCUCAGAGCUCGAGAACAUCUUCGGAUGCAGAGGAGGCAGGCUUCGGUGGCGCGAUAGCGGCAACGACCUCAACCUCCAAUGCAUCCCACCACAUGAAGAUGCCUGAAGAGCCUUGAUUUUUUG [C72G U78A U109A G128A] | -5.92
GACCAAUCUGCCCUCAGAGCUCGAGAACAUCUUCGGAUGCAGAGGAGGCAGGCUUCGGUGGCGCGAUAGCGGCAACGUCCUCAACCUCCAAUGCAUCCCACCACAUGAUGAUGCCUGAACAGCCUUGCUUUUUUG [C72G G120C G128C] | -3.07
GACCAAUCUGCCCUCAGAGCUCGAGAACAUCUUCGGAUGCAGAGGAGGCAGGCUUCGGUGGCGCGAUAGCGGCAACGUCCUCAACCUCCAAUGCAUCCCACCAUAUGAUGAUGCCUGAAGAGCCUUGGUUUUUUG [C72G C104U] | -0.348
GACCAAUCUGCCCUCAGAGCUCGAGAACAUCUUCGGAUGCAGAGGAGGCAGGCUUCGGUGGCGCGAUAGCGUCAACGUCCUCAAUCUCCAAUGCAUCCCACCAGAUGAUGAAGCCUGAAGAUCCUUGGUUUUGUG [C72U C85U C104G U112A G122U U133G] | -6.97
GACCAAUCUGCCCUCAGAGCUCGAGAACAUCUUCGGAUGCAGAGGAGGCAGGCUUCGGUGGCGCGAUAGCGGCAACGUCCUCAACCUCCAAUGCAUCCCACCAAAUGAUGAUGCCAGAAGAGCCUUGGUUUUUUG [C72G C104A U116A] | -5.17
GACCAAUCUGCCCUCAGAGCUCGAGAACAUCUUCGGAUGCAGAGGAGGCAGGCUUCGGUGGCGCGAUAGCGGCAACGUCCUCAACCUCCAAUGCAUUCCACCACAUGAUGAUGCCUGAAGAACCUUGGUUUUUUG [C72G C97U G122A] | -1.57
GACCAAUCUGCCCUCAGAGCUCGAGAACAUCUUCGGAUGCAGAGGAGGCAGGCUUCGGUGGCGCGAUAGCGGCAACGUCCUCAACCUCCAAUGCAUCCCACCACAUGAUGAUGCCUGAAGAGCCUUGGUUUUUUU [C72G G135U] | -0.702
GACCAAUCUGCCCUCAGAGCUCGAGAACAUCUUCGGAUGCAGAGGAGGCAGGCUUCGGUGGCGCGAUAGCGGCAACGUCCUCAACCUCCAAUGCAUCCCACCACAUGAUGAUGCCUGAAGAGCCUUGGUUUUUUC [C72G G135C] | -1.17
GACCAAUCUGCCCUCAGAGCUCGAGAACAUCUUCGGAUGCAGAGGAGGCAGGCUUCGGUGGCGCGAUAGCGGCAACGUCCUCAACCUCCAAUGCAUCUCACCACCUGAUGAUGCCUGAAGAGCCUUGGUUUUUUG [C72G C98U A105C] | -4.92
GACCAAUCUGCCCUCAGAGCUCGAGAACAUCUUCGGAUGCAGAGGAGGCAGGCUUCGGUGGCGCGAUAGCGUCAACGUCCUCAACCUCCAAUGCAUCCCACCACAUGAUGAUGCCUGAAGAGGCUUGGUUUUUUG [C72U C123G] | 0.829
GACCAAUCUGCCCUCAGAGCUCGAGAACAUCUUCGGAUGCAGAGGAGGCAGGCUUCGGUGGCGCGAUAGCGGCAACGUCCUCAACCUCCAAUGCAUCCCACCACAUGAUGAUGCCUGAAGAGACUUGGUUUUUUG [C72G C123A] | -0.175
GACCAAUCUGCCCUCAGAGCUCGAGAACAUCUUCGGAUGCAGAGGAGGCAGGCUUCGGUGGCGCGAUAGCGUCAACGUCCUCAACCUCCAAUGCGUCUCACCACAUGAUGAUACCUGGAGAGCCUUGGUUUUUUG [C72U A95G C98U G113A A118G] | -4.04
GACCAAUCUGCCCUCAGAGCUCGAGAACAUCUUCGGAUGCAGAGGAGGCAGGCUUCGGUGGCGCGAUAGCGUCAAAGUCCUCAACCUACAAUGCAACCCACCACAUGAUGAUGCCUGAAGAGCCUUGGUUUUUUG [C72U C76A C88A U96A] | -3.05
GACCAAUCUGCCCUCAGAGCUCGAGAACAUCUUCGGAUGCAGAGGAGGCAGGCUUCGGUGGCGCGAUAGCGGCAACGUCCUCAACCUUCAAAGCAUCCCACCACAUGAUGAUGCCUGAAGAGCCUUGGUUUUUUG [C72G C88U U92A] | -3.52
GACCAAUCUGCCCUCAGAGCUCGAGAACAUCUUCGGAUGCAGAGGAGGCAGGCUUCGGUGGCGCGAUAGCGUCAACGUCCUCAACCUCCAAUGGGUCCCACCACAUGAUGAUGCCUGAAGAGUCUUGGUUUUUUG [C72U C94G A95G C123U] | -0.867
GACCAAUCUGCCCUCAGAGCUCGAGAACAUCUUCGGAUGCAGAGGAGGCAGGCUUCGGUGGCGCGAUAGCGUCAACGUCCUCAACCUCGAAUGCAUCCCACCACAUGAUGAUCCCUGAAGAGCCUUGGUUUUUUG [C72U C89G G113C] | -3.26
GACCAAUCUGCCCUCAGAGCUCGAGAACAUCUUCGGAUGCAGAGGAGGCAGGCUUCGGUGGCGCGAUAGCGUCAACGUCCUCAACCUCAAAUGCAUCCCACCACAUGAUGAUGCCUGAAGAGCCUUGGUUUUUUG [C72U C89A] | -1.22
